Assay [1] has as its target T1, FlAsH-tagged Met1-diUb (UniProt P0CG48 1-76; P0CG48 1-71, Lumio Green (FlAsH) on the C-terminal WCCPGCC motif). Briefly: FP.
The target in assay [2] is T1, FlAsH-tagged Met1-diUb. Briefly: FP. The source holds these as a separate data set.

Read-outs that look alike come from different tables or passages of the source.

B1: OTULIN C129A TQK100-102AAA (enzyme)
chain: MSRGTMPQPEAWPGASCAETPAREAAATARDGGKAAASGQPRPEMQCPAEHEEDMYRAADEIEKEKELLIHERGASEPRLSVAPEMDIMDYCKKEWRGNAAAATCMKMGYEEVSQKFTSIRRVRGDNYAALRATLFQAMSQAVGLPPWLQDPELMLLPEKLISKYNWIKQWKLGLKFDGKNEDLVDKIKESLTLLRKKWAGLAEMRTAEARQIACDELFTNEAEEYSLYEAVKFLMLNRAIELYNDKEKGKEVPFFSVLLFARDTSNDPGQLLRNHLNQVGHTGGLEQVEMFLLAYAVRHTIQVYRLSKYNTEEFITVYPTDPPKDWPVVTLIAEDDRHYNIPVRVCEETSL
B1: in the assay with FlAsH-tagged Met1-diUb [1], the Kd (commonly a measure of binding affinity in units of concentration) was determined as 36.1 µM.

B2: NEMO UBAN domain (domain or fragment)
chain: GMQLEDLKQQLQQAEEALVAKQEVIDKLKEEAEQHKIVMETVPVLKAQADIYKADFQAERQAREKLAEKKELLQEQLEQLQREYSKLKAS
B2 showed a dissociation constant (Kd) in the assay with FlAsH-tagged Met1-diUb [2] of 3.7 µM.

The values are drawn from PMC3690481 (2013).
